The record followed here is patent US20020035246, “SMAD-interacting polypeptides and their use” (published 2002).

The data set addresses T1, SIP1CZF (C-terminal zinc finger cluster of SIP1) (Mus musculus, UniProt Q9R0G7 SEQ:728-805).
T1 sequence: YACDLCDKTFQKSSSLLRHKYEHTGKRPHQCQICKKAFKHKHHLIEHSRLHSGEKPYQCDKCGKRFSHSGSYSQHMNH
Nature of the data set: EMSA; competed by excess unlabeled self. To be noted: tags: GST fusion, E. coli; label: 32P.

B1: Brachyury binding site (dsDNA)
DNA 1: TGACACCTAGGTGTGAATT
DNA 2: AATTCACACCTAGGTGTCA
On to B1, for which the binding result is given as “binds”.
